# Measurements published in patent US20210324099A1 (Chugai, published 2021).
# Changes are numbered by the printed parent chain.
# T1: hFcgRIIaH (human, UniProt P12318 34-217)
# T1 construct: extracellular domain; also called human FcγRIIa type H (H131)
# T1 sequence (looked up): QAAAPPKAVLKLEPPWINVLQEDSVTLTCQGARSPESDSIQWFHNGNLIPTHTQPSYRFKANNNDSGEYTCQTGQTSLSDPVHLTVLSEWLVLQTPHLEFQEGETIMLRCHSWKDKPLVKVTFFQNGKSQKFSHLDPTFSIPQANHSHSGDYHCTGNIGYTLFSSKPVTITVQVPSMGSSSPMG
# T2: hFcgRIIaR (human, UniProt P12318 34-217)
# T2 construct: extracellular domain; also called human FcγRIIa type R (R131)
# T2 sequence (looked up): T1 sequence (looked up) with H134R
# T3: hFcgRIIb (human, UniProt P31994 43-217)
# T3 construct: extracellular domain; also called human FcγRIIb
# T3 sequence (looked up): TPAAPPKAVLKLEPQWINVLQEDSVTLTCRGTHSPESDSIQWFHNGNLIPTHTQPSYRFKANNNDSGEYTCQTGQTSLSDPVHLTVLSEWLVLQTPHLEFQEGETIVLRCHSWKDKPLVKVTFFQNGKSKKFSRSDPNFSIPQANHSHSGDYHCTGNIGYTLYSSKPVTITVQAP
# B1: A375-SCF041a/B167-Lamlib (antibody, human IgG1, lambda)
# heavy: EVQLVESGGGLVKPGGSLRLSCAASGFTFSTFTMNWVRQAPGKGLEWVSSISSKSTYIEYADSFKVRFTISRDNAKNSLYLQMNSLRAEDTAVYYCARYGAKNFLNWVFDYWGQGTLVTVSSASTKGPSVFPLAPSSKSTSGGTAALGCLVKDYFPEPVTVSWNSGALTSGVHTFPAVLQSSGLYSLSSVVTVPSSSLGTQTYICNVNHKPSNTKVDKRVEPKSCDKTHTCPPCPAPELLNGPSVFLFPPKPKDTLMISRTPEVTCVVVDVSDEDPEVKFNWYVDGVEVHNAKTKPREEQYNSTYRVVSVLTVLHQDWLNGKEYKCKVSNKALPKPIEKTISKAKGQRREPQVYTLPPSREEMTKNQVSLTCLVKGFYPSDIAVEWESNGQPENNYKTTPPVLDSDGSFFLYSKLTVDKSRWQQGNVFSCSVMHEALHNHYTQKSLSLSP
# light: QSALTQPPSASGSPGQTVTISCTGTRYDVGYYEYVSWYQQHPGKAPKLMIYETSKRLSGVPDRFSGSKSGNTASLTVSGLQAEDEADYYCSSYRYEHQVSFGGGTKLTVLGQPKAAPSVTLFPPSSEELQANKATLVCLISDFYPGAVTVAWKADSSPVKAGVETTTPSKQSNNKYAASSYLSLTPEQWKSHRSYSCQVTHEGSTVEKTVAPTECS
# B2: A375-SCF059aPh/B167-Lamlib (antibody, human IgG1, lambda)
# heavy: B1 heavy with L240W, Q316R, R348P, D418K
# light: B1 light
# notes: copies: 2 + 2
# B3: A375-SCF056aPh/B167-Lamlib (antibody, human IgG1, lambda)
# heavy: B1 heavy with L240W, Q316R, R348P
# light: B1 light
# notes: copies: 2 + 2
# B4: A375-SCF043aPh/B167-Lamlib (antibody, human IgG1, lambda)
# heavy: B1 heavy with L240W, D418K
# light: B1 light
# B5: A375-SCF057a/B167-Lamlib (antibody, human IgG1, lambda)
# heavy: B1 heavy with Q316R
# light: B1 light
# B6: A375-SCF059a/B167-Lamlib (antibody, human IgG1, lambda)
# heavy: B1 heavy with Q316R, R348P, D418K
# light: B1 light
# notes: copies: 2 + 2
# B7: A375-SCF056a/B167-Lamlib (antibody, human IgG1, lambda)
# heavy: B1 heavy with Q316R, R348P
# light: B1 light
# notes: copies: 2 + 2
# B8: A375-SCF043a/B167-Lamlib (antibody, human IgG1, lambda)
# heavy: B1 heavy with D418K
# light: B1 light
# B9: A375-SCF057aPh/B167-Lamlib (antibody, human IgG1, lambda)
# heavy: B1 heavy with L240W, Q316R
# light: B1 light
# B10: A375-SCF041aPh/B167-Lamlib (antibody, human IgG1, lambda)
# heavy: B1 heavy with L240W
# light: B1 light
# B11: A375-SCF042a/B167-Lamlib (antibody, human IgG1, lambda)
# heavy: B1 heavy with R348P, D418K
# light: B1 light
# notes: copies: 2 + 2
# Molecular target: T4, hFcgRIa (human, UniProt P12314 16-292)
# T4 construct: extracellular domain; also called human FcγRIa; FcγRI
# T4 sequence (P12314 16-292): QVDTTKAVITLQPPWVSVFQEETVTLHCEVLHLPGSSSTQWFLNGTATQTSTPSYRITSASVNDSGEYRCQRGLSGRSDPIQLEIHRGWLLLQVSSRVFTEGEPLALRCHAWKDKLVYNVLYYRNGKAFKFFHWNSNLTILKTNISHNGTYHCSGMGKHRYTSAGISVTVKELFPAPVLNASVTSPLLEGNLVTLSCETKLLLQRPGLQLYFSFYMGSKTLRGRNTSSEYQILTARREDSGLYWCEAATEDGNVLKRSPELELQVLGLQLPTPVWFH
# Assay: SPR 25C
# Protocol: (§1) Biacore T200 (GE Healthcare) was used to evaluate the binding activity to the respective human Fcγ receptor (hereafter referred to as FcγR). Measurement was performed at 25° C. using 50 mM phosphate, 150 mM NaCl, 0.05 w/v %-P20, pH 7.4 as buffer. About 1000 RU of antibody was captured using a sensor chip immobilized with CaptureSelect™ Human Fab-lambda Kinetics Biotin Conjugate (Thermo Fisher Scientific) as a molecule for ligand capturing. Human FcγR was diluted to 8 nM for FcγRIa and 1000 nM for other FcγR in the measurement buffer, and it was interacted to the captured antibody. The binding activity of each antibody to FcγR was assessed by calculating the binding amount of FcγR (RU) per unit amount of antibody using Biacore T200 Evaluation Software 2.0.
# 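Throughout, for binding per 1RU of antibody: biacore SPR with antibody captured on an anti-human Fab lambda chip, human FcγR injected at 1000 nM (FcγRIa at 8 nM) in pH 7.4 phosphate buffer.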
row,binding per 1RU of antibody [RU],Binder
1,0.0446,B1
2,0.0089,B2
3,0.0019,B3
4,0.0011,B4
5,0.0405,B5
6,0.038,B6
7,0.0395,B7
8,0.0429,B8
9,0.0021,B9
10,0.0013,B10
11,0.0396,B11

# Molecular target: T1, hFcgRIIaH
# Assay: SPR 25C
# Protocol: as §1
row,binding per 1RU of antibody [RU],Binder
1,0.0571,B1
2,0.0332,B2
3,0.0314,B3
4,0.0349,B4
5,0.0525,B5
6,0.0502,B6
7,0.0529,B7
8,0.0552,B8
9,0.0365,B9
10,0.0371,B10
11,0.0522,B11

# Molecular target: T2, hFcgRIIaR
# Assay: SPR 25C
# Protocol: as §1
row,binding per 1RU of antibody [RU],Binder
1,0.0376,B1
2,0.0319,B2
3,0.0299,B3
4,0.0349,B4
5,0.0367,B5
6,0.0319,B6
7,0.0331,B7
8,0.0361,B8
9,0.0364,B9
10,0.0371,B10
11,0.0327,B11

# Molecular target: T3, hFcgRIIb
# Assay: SPR 25C
# Protocol: as §1
row,binding per 1RU of antibody [RU],Binder
1,0.0433,B1
2,0.0291,B2
3,0.0292,B3
4,0.0339,B4
5,0.0412,B5
6,0.0358,B6
7,0.0399,B7
8,0.0419,B8
9,0.0345,B9
10,0.035,B10
11,0.0393,B11

# Molecular target: T5, hFcgRIIIaF (human, UniProt P08637 17-208)
# T5 construct: extracellular domain; also called human FcγRIIIa allotype F158
# T5 sequence (P08637 17-208): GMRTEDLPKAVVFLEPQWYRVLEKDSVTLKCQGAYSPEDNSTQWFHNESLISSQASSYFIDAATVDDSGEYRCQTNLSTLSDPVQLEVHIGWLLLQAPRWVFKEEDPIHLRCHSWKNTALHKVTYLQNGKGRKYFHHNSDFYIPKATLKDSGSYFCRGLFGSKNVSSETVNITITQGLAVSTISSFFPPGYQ
# Assay: SPR 25C
# Protocol: as §1
row,binding per 1RU of antibody [RU],Binder
1,0.0009,B1
2,0.0003,B2
3,0.001,B3
4,0.0001,B4
5,0.0013,B5
6,0.001,B6
7,0.0011,B7
8,0.0011,B8
9,-0.0003,B9
10,0.0007,B10
11,0.0003,B11

# Molecular target: T6, hFcgRIIIaV (human, UniProt P08637 17-208)
# T6 construct: extracellular domain; also called human FcγRIIIa allotype V158
# T6 sequence (P08637 17-208 F176V): as the sequence (P08637 17-208) above, with F160V counted along it
# Assay: SPR 25C
# Protocol: as §1
row,binding per 1RU of antibody [RU],Binder
1,0.0022,B1
2,0.0028,B2
3,0.001,B3
4,0.0001,B4
5,0.0025,B5
6,0.0021,B6
7,0.0023,B7
8,0.0025,B8
9,0.0005,B9
10,0.0005,B10
11,0.0014,B11

# Molecular target: human FcRn (human, UniProt P55899 24-290; P61769 21-119, limits assumed)
# Assay: SPR 25C pH 6.0, steady state;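 note: antibody captured on chip via anti-human Fab-lambda ligand, human FcRn injected as analyte in 50 mM phosphate buffer with 150 mM NaCl and P20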
# Protocol: Biacore T200 (GE Healthcare) was used to assess the binding activity to human FcRn. Measurement was performed at 25° C. using 50 mM phosphate, 150 mM NaCl, 0.05 w/v %-P20, pH 6.0 as buffer. […] About 400 RU of antibody was captured using a sensor chip immobilized with CaptureSelect™ Human Fab-lambda Kinetics Biotin Conjugate (Thermo Fisher Scientific) as a molecule for ligand capturing, followed by the binding of human FcRn diluted in measuring buffer. The activity of the respective antibodies to bind FcRn was assessed by calculating KD (mol/L) by the steady-state model using Biacore T200 Evaluation Software 2.0.
row,Kd [nM],Binder
1,1100,B1
2,1050,B2
3,1000,B3
4,1210,B4
5,928,B5
6,1030,B6
7,956,B7
8,1180,B8
9,909,B9
10,1130,B10
11,1490,B11

# Molecular target: T4, hFcgRIa
# Assay: SPR 25C; relative to A375-G1T3/B167-Lamlib;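 note: SPR with antibody captured on an anti-human Fab-lambda chip, human FcγR analyte at 8 nM for FcγRIa or 1000 nM for the others, pH 7.4, FcγR RU per captured antibody unit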
row,relative binding amount,Binder
1,0.55,B1
2,0.11,B2
3,0.02,B3
4,0.01,B4
5,0.5,B5
6,0.47,B6
7,0.49,B7
8,0.53,B8
9,0.03,B9
10,0.02,B10
11,0.49,B11

# Molecular target: T1, hFcgRIIaH
# Assay: SPR 25C; relative to A375-G1T3/B167-Lamlib;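 note: SPR with antibody captured on an anti-human Fab-lambda chip, human FcγR analyte at 8 nM for FcγRIa or 1000 nM for the others, pH 7.4, FcγR RU per captured antibody unit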
row,relative binding amount,Binder
1,1.01,B1
2,0.59,B2
3,0.55,B3
4,0.62,B4
5,0.93,B5
6,0.88,B6
7,0.93,B7
8,0.97,B8
9,0.64,B9
10,0.65,B10
11,0.92,B11

# Molecular target: T2, hFcgRIIaR
# Assay: SPR 25C; relative to A375-G1T3/B167-Lamlib;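 note: SPR with antibody captured on an anti-human Fab-lambda chip, human FcγR analyte at 8 nM for FcγRIa or 1000 nM for the others, pH 7.4, FcγR RU per captured antibody unit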
row,relative binding amount,Binder
1,0.81,B1
2,0.69,B2
3,0.64,B3
4,0.75,B4
5,0.79,B5
6,0.69,B6
7,0.71,B7
8,0.78,B8
9,0.79,B9
10,0.8,B10
11,0.71,B11

# Molecular target: T3, hFcgRIIb
# Assay: SPR 25C; relative to A375-G1T3/B167-Lamlib;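 note: SPR with antibody captured on an anti-human Fab-lambda chip, human FcγR analyte at 8 nM for FcγRIa or 1000 nM for the others, pH 7.4, FcγR RU per captured antibody unit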
row,relative binding amount,Binder
1,3.95,B1
2,2.66,B2
3,2.67,B3
4,3.1,B4
5,3.76,B5
6,3.27,B6
7,3.64,B7
8,3.82,B8
9,3.15,B9
10,3.2,B10
11,3.59,B11

# Molecular target: T5, hFcgRIIIaF
# Assay: SPR 25C; relative to A375-G1T3/B167-Lamlib
row,relative binding amount,Binder
1,0.04,B1
2,0.01,B2
3,0.05,B3
4,0,B4
5,0.06,B5
6,0.05,B6
7,0.05,B7
8,0.05,B8
9,-0.02,B9
10,0.03,B10
11,0.01,B11

# Molecular target: T6, hFcgRIIIaV
# Assay: SPR 25C; relative to A375-G1T3/B167-Lamlib
row,relative binding amount,Binder
1,0.03,B1
2,0.04,B2
3,0.01,B3
4,0,B4
5,0.04,B5
6,0.03,B6
7,0.03,B7
8,0.04,B8
9,0.01,B9
10,0.01,B10
11,0.02,B11
